Reference: IntAct's records for PubMed 11801603

B1: Baculoviral IAP repeat-containing protein 7 (Homo sapiens), Q96CA5 (parent)
chain: MGPKDSAKCLHRGPQPSHWAAGDGPTQERCGPRSLGSPVLGLDTCRAWDHVDGQILGQLRPLTEEEEEEGAGATLSRGPAFPGMGSEELRLASFYDWPLTAEVPPELLAAAGFFHTGHQDKVRCFFCYGGLQSWKRGDDPWTEHAKWFPSCQFLLRSKGRDFVHSVQETHSQLLGSWDPWEEPEDAAPVAPSVPASGYPELPTPRREVQSESAQEPGGVSPAEAQRAWWVLEPPGARDVEAQLRRLQEERTCKVCLDRAVSIVFVPCGHLVCAECAPGLQLCPICRAPVRSRVRTFLS
B2: Baculoviral IAP repeat-containing protein 7 (Homo sapiens), Q96CA5 (parent)
chain: B1 chain
partner: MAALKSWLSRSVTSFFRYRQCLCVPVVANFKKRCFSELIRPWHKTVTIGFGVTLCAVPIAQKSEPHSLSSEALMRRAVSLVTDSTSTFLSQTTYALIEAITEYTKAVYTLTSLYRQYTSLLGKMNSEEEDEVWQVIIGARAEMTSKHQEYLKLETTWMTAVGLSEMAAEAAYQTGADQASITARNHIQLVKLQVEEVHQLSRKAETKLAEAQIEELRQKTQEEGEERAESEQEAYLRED

Variants of: B1
Details: with casp9_human CASP9, P55211
Sequence of casp9_human CASP9, P55211 (P55211 whole entry): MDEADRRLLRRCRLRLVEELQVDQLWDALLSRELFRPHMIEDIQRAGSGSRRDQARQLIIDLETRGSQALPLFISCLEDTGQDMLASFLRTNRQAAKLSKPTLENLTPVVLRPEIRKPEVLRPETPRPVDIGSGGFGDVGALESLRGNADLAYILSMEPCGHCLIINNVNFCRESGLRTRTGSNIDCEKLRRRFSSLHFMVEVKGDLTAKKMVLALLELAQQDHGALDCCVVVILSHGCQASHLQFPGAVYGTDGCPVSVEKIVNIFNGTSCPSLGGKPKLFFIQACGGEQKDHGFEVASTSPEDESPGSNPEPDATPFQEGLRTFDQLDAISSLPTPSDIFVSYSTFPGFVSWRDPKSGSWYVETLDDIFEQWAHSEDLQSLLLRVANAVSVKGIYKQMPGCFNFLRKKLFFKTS

Row | Variant | effect of a mutation on the interaction
1 | D138A | decreasing interaction

Variants of: B2
Details: with dbloh_human DIABLO

Row | Variant | effect of a mutation on the interaction
2 | D120A | decreasing interaction
3 | D138A | decreasing interaction
